Data reported in patent US10584153B2, “Treatment of damaged nerve with PTEN inhibitor” (TISSUEGENE, INC., priority 2013, dated 2020).
Several values for one entry are separate records, joined by “and”; a condition that tells them apart may be missing. Equal entries are not always repeated. No end group written: not given here.

Columns and labels:
PTEN [1] = biological target: T1, PTEN (Homo sapiens, UniProt P60484); settings: from Odriozola et al.; read-out: IC50, in vitro PTEN (Odriozola peptides); cited from earlier work
Target sequence in this assay (P60484 whole entry, species assumed): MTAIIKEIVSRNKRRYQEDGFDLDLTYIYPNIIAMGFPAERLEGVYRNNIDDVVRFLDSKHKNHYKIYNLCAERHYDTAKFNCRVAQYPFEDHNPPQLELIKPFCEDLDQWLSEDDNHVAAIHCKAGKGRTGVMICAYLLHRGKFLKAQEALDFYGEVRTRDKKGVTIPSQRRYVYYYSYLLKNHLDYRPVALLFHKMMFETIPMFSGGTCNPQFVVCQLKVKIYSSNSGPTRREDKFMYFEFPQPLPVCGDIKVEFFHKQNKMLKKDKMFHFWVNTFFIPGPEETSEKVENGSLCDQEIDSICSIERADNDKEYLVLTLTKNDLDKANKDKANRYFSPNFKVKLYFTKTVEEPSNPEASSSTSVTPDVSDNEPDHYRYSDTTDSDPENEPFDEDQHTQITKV

PTEN [2] = biological target: T1, PTEN; test: In vitro PTEN activity assay / IC50 assay (Malachite Green, C8-PIP3 liposome); format: biochemical; design: purchased R&D Systems, Inc; settings: 10 μM peptide
Target sequence in this assay (P60484 whole entry): as the sequence (P60484 whole entry, species assumed) above
Excerpt: In vitro PTEN activity assay was designed to check PTEN lipid phosphatase activity to convert phosphatidylinositol triphosphate (PIP3) to phosphatidylinositol diphosphate (PIP2) and produce phosphate ion (Pi). 1,2-dioctanoyl-sn-glycero-3-phospho-(1′-myo-inositol-3,4,5-triphosphate) (C8-PIP3) was used as PTEN substrate and prepared as lipid vesicle (liposome) with other phospholipids because PTEN as lipid phosphatase is an interfacial enzyme. For liposome preparation, C8-PIP3, DOPS (1,2-dioeloyl-sn-glycero-phosphoserine) and DOPC (1,2-dioeloyl-sn-glycero-phosphocholine) were mixed together with 800 μL of liposome buffer (50 mM Tris, 100 mM NaCl, 10 mM MgCl2, 5 mM DTT, pH=8.0) to final concentration of 0.1 mM of C8-PIP3, 0.25 mM DOPS and 0.25 mM DOPC. The lipid mixture was then sonicated at 4° C. for 30 min to produce liposome. After sonication, the liposome solution was briefly centrifuged to remove remaining lipids.
For PTEN activity assay, 20 ng of recombinant human PTEN protein was mixed with 40 μL of completed liposome solution. […] After incubation, the inorganic phosphate ions produced by PTEN protein was detected using Malachite Green phosphate detection kit. […]
All data represent experimentation in triplicate and the IC50 values were calculated by Prism 5 software (GraphPad Software).

[3] = tested on: Akt protein phosphorylation in PC12 cells (PI3K-Akt signaling pathway); test: Akt activation (phosphorylation) level by Western blot in PC12 cells; format: cell-based, rat; settings: endogenous or overexpressed PTEN, TGN-1 10 and 100 μM, TGN-4 10 μM, 24 hr
Description: PC12 rat pheochromocytoma cells were seeded to 6-well plate (0.6×10^6 cells/well) and cultured with DMEM media containing 7.5% FBS and 7.5% Goat Serum. After the cell confluency reached around 60˜70%, NGF (nerve growth factor, 50 ng/mL) was added to the PC12 cells for differentiation and incubated for 5 more days. Then, fresh media containing different amounts of TGN peptides in DMSO solution were added to each well and incubated further for 24 hr. For PTEN overexpession, PC12 cells were seeded in 6-well plate (1.0×10^6 cells/well) and differentiated with NGF (50 ng/mL) as above. DNA-Lipofectamine 2000 mixture was prepared for each well of cells to be transfected by firstly adding 2˜2.5 μg of human PTEN c-DNA into 500 μl of Opti-MEM. 3.75-8.75 μl of Lipofectamine 2000™ reagent was added next to the above diluted DNA solution, mixed gently and incubated for 25 minutes at room temperature. Growth media of PC12 cells in 6-well plate was exchanged with fresh media and 500 μl of the DNA-Lipofectamine 2000 complex was added to each well for transfection. Transfected cells were incubated at 37° C. in 5.0% CO2 incubator for 24-48 hours post-transfection before assaying for transgene expression.
After culturing, PC12 cells were collected from the 6-well plate and centrifuged down with bench-top centrifuger to make cell pellet (13,000 rpm, 5 min at RT). […]

Row | Substance | IC50 (PTEN [1]) | Inhibitory effect on in vitro PTEN activity (PTEN [2]) | Activation (phosphorylation) level of Akt protein [3]
1 | Cp23: synthetic phosphomimic peptide of Odriozola et al. encompassing PTEN AA368-390, no phosphorylated Serine residues (DVSDNEPDHYRYSDTTDSDPENE; UniProt P60484 368-390, looked up, fragment) | ~1030 µM and 1030 µM | – | –
2 | RRRRRRRR-DEHDTEYTPDYRQETHFNSQPTDKSDVI-amide (RRRRRRRRDEHDTEYTPDYRQETHFNSQPTDKSDVI-NH2) [TGN-5, TGN-2/TGN-3 scrambled peptide] | – | no significant inhibition | –
3 | RRRRRRRR-SDDEYTDNPDSRYVSDTPVDTEH-amide (RRRRRRRRSDDEYTDNPDSRYVSDTPVDTEH-NH2) [TGN-4, scrambled peptide of TGN-1 peptide, negative control] | – | no significant inhibition | did not increase the activation level of AKT protein
